The target in experiment [1] is human IL-1 Beta (human) (UniProt P01584). Kind of experiment: cell-based or functional assay.
For experiment [2] the target is unchanged. Kind of experiment: ELISA based competition assay; competitor: antagonistic reference mouse mAb (Diaclone). In general terms: ELISA stands for enzyme-linked immunosorbent assay.
Experiment [3] shares this target. The experiment is described as follows: competition ELISA, periplasmic extract; competitor: coated mouse mAb (Diaclone); reduced signal means competition.
A further experiment addresses T1, neutravidin (UniProt P02701 25-152).
T1 construct: Control wells without biotinylated IL-1 Beta
The experiment is described as follows: phage ELISA, crude phage extract, anti-M13-HRP.

Numbering of substitutions follows the chain as printed.

From EP3061768A1 (dated 2016) come the findings set out here.

T1 sequence (P02701 25-152): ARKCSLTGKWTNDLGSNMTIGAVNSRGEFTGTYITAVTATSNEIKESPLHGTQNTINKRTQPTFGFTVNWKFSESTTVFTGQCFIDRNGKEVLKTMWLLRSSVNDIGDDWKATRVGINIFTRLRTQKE
Chain of human IL-1 Beta (human) (P01584 117-269 limits assumed): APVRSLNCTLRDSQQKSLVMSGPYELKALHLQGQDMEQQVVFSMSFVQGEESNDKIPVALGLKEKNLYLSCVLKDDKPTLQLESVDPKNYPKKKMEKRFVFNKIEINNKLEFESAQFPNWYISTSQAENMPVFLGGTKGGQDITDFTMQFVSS

B1: Fab 1C3 (Fab, part only; not given: lambda light chain, V domains shown, not shown: a dimerising Fc or GST)
VH: EVQLVESGGGLVQPGGSLRLSCAASGFTFSSYWMYWVRQAPGKGLEWVSAINTGGGRTYYADSVKGRFTISRDNAKNTLYLQMNSLKSEDTAVYYCAKGTSADGSSWYVPADPYDYWGQGTQVTVSS
In turn, B1 returned an IC50 in the bioassay with human IL-1 Beta (human) [1] of 3 µg/mL. This molecule also showed a concentration at which competition is seen in the experiment with human IL-1 Beta (human) [2] of more than 50 µg/mL. In the experiment with human IL-1 Beta (human) [3], this molecule displayed an OD signal in the competition assay of 0.386 OD.

B2: wt 1E2 gene3-Fab fusion on phage (Fab, V domains shown)
VH: EVQLVESGGGLVQPGGSLRLSCTASGFTFSNYWMYWVRQAPGKGLEWVSAINAAGSTYYADSVKGRFTISRDNAKNTLYLQMNSLQSEDTALYYCANLPRWGQGTQVTVSS
VL: QTVVTQEPSLSVSPGGTVTLTCGLSSGSVTSGNYPGWYQQKPGQAPRTLIYNTNSRYSGVPNRFSGSISGNKAALTITGAQPEDEADYYCAVYIGSSSYPVVFGGGTHLTVLG
notes: crude phage extract; also called wt 1E2 (phage)
With B2, the binding result in the experiment with neutravidin is on record as “no binding”.

B3: hum 1E2 gene3-Fab fusion on phage (Fab, V domains shown)
VH: B2 VH with T23A, A74S, Q86R, S87A, L92V, Q106L
VL: B2 VL with L10F, K41T, Y57S, N62D, S69L, P82A, E83D, A86S, H108K
notes: also called fully humanized 1E2
With B3, the binding result with neutravidin is “no binding”.

B4: safe variant 1E2 gene3-Fab fusion on phage (Fab, V domains shown)
VH: B2 VH with T23A, A74S, L92V
VL: B2 VL with L10F, Y57S, N62D, S69L, E83D, A86S
notes: The text says 'partially humanized V lambda fused to human C lambda and CH1'; also called safe 1E2
Take B4: in the experiment with neutravidin, the binding result is recorded as “no binding”.

B5: Fab 1B3 (Fab, part only; not given: lambda light chain, V domains shown, not shown: a dimerising Fc or GST)
VH: EVQLVQSGAELRNPGASVKVSCKASGYTFTSYYIDWVRQAPGQGLEWMGRIDPEDGGTKYAQKFQGRVTFTADTSTSTAYVELSSLRSEDTAVYYCARSGRYELDYWGQGTQVTVSS
With B5, the OD signal in the competition assay with human IL-1 Beta (human) [3] is 0.444 OD.

B6: Fab 1G1 (Fab, part only; not given: light chain, V domains shown, part only)
VH: B5 VH with I34T, G57D, S84T, A97L, R101A
For B6, the OD signal in the competition assay with human IL-1 Beta (human) [3] was determined as 0.498 OD.

B7: wt 1F2 gene3-Fab fusion on phage (Fab, V domains shown)
VH: EVQLVESGGGLVQPGGSLRLSCAASGFTFSTYAMSWVRQAPGKGPEWVSGINTGGGSTGYADSVKGRFTISRDNAKNTLYLQMNSLKPEDTAVYYCAKDWMATTPWGQGTQVTVSS
VL: QAVVTQEPSLSVSPGGTVTLTCGLSSGSVTTNNYPGWFQQTPGQAPRTLIYNTNNRHSGVPSRFSGSISGNKAALTITGAQPEDEADYYCALYMSSGSNNAVFGGGTHLTVLG
As for B7, the binding result with neutravidin was “no binding”.

B8: hum 1F2 gene3-Fab fusion on phage (Fab, V domains shown)
VH: B7 VH with V5L, P45L, A75S, K87R, P88A, Q111L
VL: B7 VL with A2T, L10F, F38Y, H57S, S62D, S69L, P82A, E83D, A86S, H108K
notes: also called fully humanized 1F2
Take B8: in the experiment with neutravidin, the binding result is “no binding”.

B9: safe variant 1F2 gene3-Fab fusion on phage (Fab, V domains shown)
VH: B7 VH with V5L, A75S, K87R
VL: B7 VL with A2T, L10F, S69L, P82A, E83D, A86S, H108K
notes: The text says 'partially humanized V lambda fused to human C lambda and CH1'; the result sentence speaks of back mutations in both VL and VH, so the safe VH is used; also called safe 1F2; partially humanized 1F2
As to B9, the binding result with neutravidin is on record as “no binding”.

B10: Fab 1A1 (Fab, part only; not given: lambda light chain, V domains shown, not shown: a dimerising Fc or GST)
VH: EVQLVESGGGLVQPGGSLRLSCAASGFTFDDYAMSWVRQAPGKGLEWVSTISWNGGATYYAESMKGRFTISRDNAKNTLYLQMNSLKSEDTAVYYCAKPYYSDYVGVEYDYWGQGTQVTVSS
For the molecule B10, in the experiment with human IL-1 Beta (human) [1], the IC50 in the bioassay amounted to 10 µg/mL. In the experiment with human IL-1 Beta (human) [2], this molecule displayed an IC50 of 12 µg/mL. The molecule also registered an OD signal in the competition assay with human IL-1 Beta (human) [3] of 0.205 OD.

The IC50 is the midpoint of a concentration-inhibition curve. Higher therefore signals weaker potency in that assay.
